# Source: patent US20230312646A1 (published 2023)
# B1: Pseudomonas aeruginosa sliding clamp (other)
# chain: MHFTIQREALLKPLQLVAGVVERRQTLPVLSNVLLVVEGQQLSLTGTDLEVELVGRVVLEDAAEPGEITVPARKLMDICKSLPNDVLIDIRVEEQKLLVKAGRSRFTLSTLPANDFPTVEEGPGSLNFSIAQSKLRRLIDRTSFAMAQQDVRYYLNGMLLEVNGGTLRSVATDGHRLAMCSLDAQIPSQDRHQVIVPRKGILELARLLTEQDGEVGIVLGQHHIRATTGEFTFTSKLVDGKFPDYERVLPRGGDKLVVGDRQQLREAFSRTAILSNEKYRGIRLQLSNGLLKIQANNPEQEEAEEEVQVEYNGGNLEIGFNVSYLLDVLGVIGTEQVRFILSDSNSSALVHEADNDDSAYVVMPMRL
# notes: also called ^PaSC; P. aeruginosa
# Columns and labels:
# [1] = target: P50 (hexapeptide with Oic and a C-terminal 3,4-dichlorinated phenylalanine); test: ITC, 25 C
# [2] = target: P47 (P32 with proline replaced by octahydroindole-2-carboxylic acid, Oic); test: ITC, 25 C
binder,measurement,setting,value
B1,Kd,[1],20 nM
same,Kd,[2],201 nM
